# Measurements reported in patent publication US20250281653A1, “METHODS FOR TREATING PROSTATE CANCER WITH RADIOPHARMACEUTICALS” (ARTBIO, Inc., priority 2024, published 2025).
# Where “and” joins values, the source holds several entries; their conditions need not be identical. Equal values may be shown once.
# Assays:
# [1] = Baseline F18-PSMA-PET/CT: normal tissue evaluation at screening; format: in vivo, human; conditions: individual participants
# Protocol: Participants underwent a standard of care diagnostic ^18F-PSMA-PET/CT at baseline (i,e, within six weeks prior to administration of ^212Pb-Compound 1).
# PSMA-PET/CT was conducted using the radiotracer ^18F-PSMA-1007: dose 2.5 MBq/kg (minimum 200 MBq, maximum 300 MBq) with PET acquisition performed approximately 120 minutes post-injection.
# Each patient received a baseline PSMA-PET/CT evaluation utilizing an F18-PSMA-PET tracer during the screening period (i.e. prior to ^212Pb-Compound 1 administration).
# The pattern of PSMA-PET CT tracer uptake in normal organs is within expectations in each case; with notable uptake in the salivary glands (SUVmax range 20.06-30.7), kidneys (SUVmax range 18.7-35.2) and liver (SUVmax range 14.5-25.5).
# [2] = in vivo; cited from earlier work
# [3] = set-up: species or system human; conditions: in vivo
# Protocol: (§1) Study drug administration: a single injection of 10 MBq for ^212Pb-Compound 1 was administered for each participant. Administration was by slow bolus IV injection via a 3-way adapter coupled to a conventional isotonic saline solution. • The timepoint of injection of ^212Pb-Compound 1 was defined as Day 0, 0 hours. […] Full blood and plasma were measured separately to investigate ligand in vivo stability. […]
# (§2) • Non-invasive gamma camera imaging with both planar gamma imaging (whole body scintigraphy) and SPECT/CT was performed at 2 timepoints following injection of ^212Pb-Compound 1: • 1-3 hours and 16-24 hours • The planar gamma camera imaging was acquired immediately before the SEPCT/CT imaging • Performed on a Siemens Symbia Intevo Bold hybrid scanner using a medium energy low penetration (MELP) or high energy (HE) collimator. • The same scanner was used for all acquisitions of all patients in the study. • Scanner room background radiation was measured 0.5 m from the SPECT/CT scanner table, over a time period of one minute, before the participant entered the scanner room. […]
# [4] = set-up: species or system human; conditions: in vivo; remark: listed apart in the source
# Protocol: as §1, §2
# [5] = set-up: species or system human; conditions: in vivo; remark: listed apart in the source
# Protocol: The sample size was three participants.
# Study drug administration: a single injection of 10 MBq for ^212Pb-Compound 1 was administered for each participant. Administration was by slow bolus IV injection via a 3-way adapter coupled to a conventional isotonic saline solution. • The timepoint of injection of ^212Pb-Compound 1 was defined as Day 0, 0 hours. Imaging, whole-body probe and blood assessments of clearance were performed at the following timepoints: • Gamma camera imaging (both planar and SPECT/CT) was scheduled 1-3 hours and 16-24 hours post injection. • Clearance was assessed with blood sampling and whole-body probe measurements at the following timepoints: 15 min after dose (+/−15 min window), 1 h after dose (+1 h window), 4 h after dose (+2 h window), 16 h after dose (+8 h window). Full blood and plasma were measured separately to investigate ligand in vivo stability. Follow-up: Patients were followed-up for safety and tolerability for 28 days post-administration of ^212Pb-Compound 1, with visits on Day 14 and Day 28. Adverse events were reported per CTCAE v5 from time of informed consent until end of follow-up. Patients were followed-up for efficacy biomarkers (PSA, ALP) for 28 days post-administration of ^212Pb-Compound 1.
# All 3 patients consented and administered ^212Pb-Compound 1 subsequently completed the planned safety follow up period (no withdrawals from the clinical trial).
compound,measurement,setting,value
O=C(O)CC[C@H](NC(=O)N[C@@H](CCCCNC(=O)[C@H](Cc1ccc2ccccc2c1)NC(=O)c1ccc(CNC(=O)[C@H](CCC(=O)O)NC(=O)[C@H](CCC(=O)O)NC(=O)c2ccc([18F])nc2)cc1)C(=O)O)C(=O)O [Compound F18-PSMA-PET],"SUV max, Bladder, including contents",[1],8.3 and 2.8 and 3
same,"SUV max, Blood pool",[1],1.2 and 0.8 and 1.3
same,"SUV max, Bone Marrow",[1],1.8 and 1.3 and 1
same,"SUV max, Kidneys",[1],35.2 and 26.8 and 18.7
same,"SUV max, Liver",[1],14.5 and 25.5 and 14.8
same,"SUV max, Salivary gland",[1],30.7 (2×) and 20.6
same,"SUV max, Spleen",[1],16.2 and 7.2 and 15.3
same,"SUV mean, Bladder, including contents",[1],6.2 and 2.3 (2×)
same,"SUV mean, Blood pool",[1],0.7 and 0.6 and 1.1
same,"SUV mean, Bone Marrow",[1],1.3 and 0.9 and 0.7
same,"SUV mean, Kidneys",[1],19.2 and 16.1 and 11.4
same,"SUV mean, Liver",[1],11.3 and 21.8 and 12.5
same,"SUV mean, Salivary gland",[1],18.5 and 13 and 19.8
same,"SUV mean, Spleen",[1],12.6 and 6.1 and 13.7
same,"SUV max, Kidneys",[1]; listed as PSMA-PET CT tracer,18.7 to 35.2
same,"SUV max, Liver",[1]; listed as PSMA-PET CT tracer,14.5 to 25.5
"O=C([O-])CN1CCN(CC(=O)[O-])CCN(CC(=O)NCC2CCC(C(=O)N[C@@H](Cc3ccc4ccccc4c3)C(=O)NCCCC[C@H](NC(=O)N[C@@H](CCC(=O)O)C(=O)O)C(=O)O)CC2)CCN(CC(=O)[O-])CC1.[177Lu+3] (stereo partly shown) [^177Lu-PSMA-617, lutetium Lu 177 vipivotide tetraxetan]","Dry mouth (i.e., xerostomia), proportion of population",[2],38.8%
"NC(=O)CN1CCN(CC(N)=O)CCN(CC(N)=O)C(Cc2ccc(NC(=S)NC[C@H]3CC[C@H](C(=O)N[C@@H](Cc4ccc5ccccc5c4)C(=O)NCCCC[C@H](NC(=O)N[C@@H](CCC(=O)O)C(=O)O)C(=O)O)CC3)cc2)CN(CC(N)=O)CC1 (stereo partly shown) [^212Pb-Compound 1, metal not drawn]",Participants with ^212Pb-Compound 1 uptake by the liver,[3],one participant at the 1 hr time point
same,^212Pb-Compound 1 uptake in retrocaval lymph node metastasis (most PSMA-avid lesion),[4],uptake at the 1 hour time point for one lesion
same,"Adverse reactions, SAEs, SUSARs or deaths",[5],"No adverse reactions, serious adverse events (SAEs), suspected unexpected serious adverse events (SUSARs) or deaths were reported"
same,CTCAE grade of the TEAE abdominal pain,[5],2
same,"Differences or trends in hematology, biochemistry and urinalysis from baseline (incl. ALT, AST, bilirubin, albumin, egfr, creatinine)",[5],no clinically significant differences or trends
same,ECOG performance score at all visits evaluated,[5],1
same,"ECOG performance status, change from baseline to end of study visit",[5],remained unchanged
same,Individual measurements of hematological and clinical chemistry parameters,[5],within their normal reference ranges
same,Investigator-assessed relationship of all TEAEs to ^212Pb-Compound 1,[5],probably unrelated
same,Number (%) of Participants with TEAE: Abdominal pain,[5],1 (33)
same,Number (%) of Participants with TEAE: Constipation,[5],1 (33)
same,Number (%) of Participants with TEAE: Erythema,[5],1 (33)
same,Number (%) of Participants with TEAE: General disorders and administration site conditions,[5],1 (33)
same,"Number (%) of Participants with TEAE: Injury, poisoning and procedural complications",[5],1 (33)
same,Number (%) of Participants with TEAE: Localized oedema,[5],1 (33)
same,Number (%) of Participants with TEAE: Skin and subcutaneous tissue disorders,[5],1 (33)
same,Number (%) of Participants with TEAE: Tooth fracture,[5],1 (33)
same,Number (%) of Participants with TEAE: Vomiting,[5],1 (33)
same,Performance status (ECOG),[5],1
same,Risk of xerostomia inferred from absent salivary gland uptake,[5],lower risk of xerostomia
